{
  "source": "paper PMC7934860",
  "about": "“Acetylation of muscle creatine kinase negatively impacts high-energy phosphotransfer in heart failure” (JCI Insight, 2021)",
  "key": {"[1]": {"target": "the molecule itself", "test": "native gel or EMSA; human rCKM, nonacetylated or in vitro acetylated, on 10% native-PAGE at 4°C (running buffer 50 mM Tris-Base, 50 mM MOPS, 0.0375% SDS, pH 7.8), blotted with anti-CKM; dimer and monomer bands by densitometry; dimer to monomers"}, "[2]": {"target": "the molecule itself", "test": "cross-linking; quantitative crosslinking MS (XL-MS) with the PIR crosslinker BDP-NHP on rCKM: control, acetylated, and Sirt2-deacetylated; links mapped to PDB 1U6R"}, "[3]": {"target": "the molecule itself", "test": "native gel or EMSA; CKM enriched from TAC-stressed mouse hearts, incubated with or without Sirt2 in vitro, then native-PAGE and anti-CKM blot; dimer to monomers"}, "[4]": {"target": "the molecule itself", "test": "native gel or EMSA; murine cardiac lysates of sham and TAC hearts (50 mM potassium phosphate, 1 mM EDTA, 1 mM beta-mercaptoethanol, pH 7.4, 0.1% Triton X-100) on 10% native-PAGE at 4°C, blotted with anti-CKM; dimer to monomers"}},
  "data": [
    {"protein": "Human recombinant CKM, in vitro acetylated (enzyme, acetyl-lysine at several lysines after in vitro acetylation (lysine residues 11, 32 and 196 are named; full list in Figure 5D), creatine kinase M-type (muscle form, CKM), human; 381-amino acid polypeptide; Same protein as m1 after in vitro acetylation; also called acetylated rCKM; in vitro acetylated rCKM) not shown", "values": [
      {"measurement": "fold decrease of the dimer band against nonacetylated rCKM", "setting": "[1]", "value": 2.1, "unit": "fold"},
      {"measurement": "fold increase of the monomer band against nonacetylated rCKM", "setting": "[1]", "value": 5.6, "unit": "fold"},
      {"measurement": "fold reduction of the homodimer crosslink K11-K11 against control rCKM", "setting": "[2]", "value": 2, "unit": "fold"},
      {"measurement": "fold reduction of the homodimer crosslink K196-K196 against control rCKM", "setting": "[2]", "value": 9, "unit": "fold"}
    ]},
    {"protein": "CKM enriched from TAC-stressed mouse hearts, deacetylated in vitro by Sirt2 (enzyme, lysine acetylation of failing-heart CKM, reduced by Sirt2, creatine kinase M-type (CKM), mouse (129S1/SvImJ); also called enriched CKM from TAC-stressed hearts + Sirt2; source: enriched from TAC mouse hearts (Blue Sepharose, Deae Sephadex A-50), then incubated with Sirt2) not shown", "values": [
      {"measurement": "fold decrease of the monomer against enriched TAC CKM without Sirt2", "setting": "[3]", "value": 3.5, "unit": "fold"}
    ]},
    {"protein": "Murine CKM in cardiac lysates of sham and TAC-stressed hearts (enzyme, lysine acetylation, significantly higher in the failing (TAC) hearts, creatine kinase M-type (CKM), mouse (129S1/SvImJ); Sham and TAC hearts are kept as one molecule; the treatment is named in the rows; also called muscle CK isoform; source: endogenous, mouse heart lysate (sham and TAC, 12 weeks)) not shown", "values": [
      {"measurement": "fold decrease of the dimer content, TAC against sham hearts", "setting": "[4]", "value": 1.4, "unit": "fold"},
      {"measurement": "fold increase of the monomer, TAC against sham hearts", "setting": "[4]", "value": 2.8, "unit": "fold"}
    ]},
    {"protein": "Human recombinant creatine kinase MM (rCKM), nonacetylated (enzyme, creatine kinase M-type (muscle form, CKM), human; 381-amino acid polypeptide; The rows are of the chain with itself (MM homodimer); also called Human CK MM; CK muscle form; source: bought: R & D Systems (catalog 9070-CK) and Abcam (catalog ab73652)) not shown", "values": [
      {"measurement": "stoichiometry N", "setting": "[1]", "value": 2}
    ]},
    {"protein": "Human recombinant CKM, in vitro acetylated and then deacetylated by Sirt2 (enzyme, acetyl-lysines removed in part by Sirt2 (lysine residues 11, 32 and 196 robustly deacetylated), creatine kinase M-type (muscle form, CKM), human; 381-amino acid polypeptide; Same protein as m2 after the in vitro deacetylation reaction; also called Sirt2-treated rCKM; Sirt2 deacetylated rCKM) not shown", "values": [
      {"measurement": "fold increase of the homodimer crosslink K11-K11 against acetylated rCKM", "setting": "[2]", "value": 1.3, "unit": "fold"},
      {"measurement": "fold increase of the homodimer crosslink K196-K196 against acetylated rCKM", "setting": "[2]", "value": 1.8, "unit": "fold"}
    ]}
  ]
}
